From PMC9751120 (2022)
Like-named read-outs stand apart in the source and are kept apart here. One block for each binder: values may come before it.

Experiments:
Assay in all cases: FP
[1] = target: T1, purified full-length ΔNp63α (human, UniProt Q9H3D4-2 1-586)
T1 chain: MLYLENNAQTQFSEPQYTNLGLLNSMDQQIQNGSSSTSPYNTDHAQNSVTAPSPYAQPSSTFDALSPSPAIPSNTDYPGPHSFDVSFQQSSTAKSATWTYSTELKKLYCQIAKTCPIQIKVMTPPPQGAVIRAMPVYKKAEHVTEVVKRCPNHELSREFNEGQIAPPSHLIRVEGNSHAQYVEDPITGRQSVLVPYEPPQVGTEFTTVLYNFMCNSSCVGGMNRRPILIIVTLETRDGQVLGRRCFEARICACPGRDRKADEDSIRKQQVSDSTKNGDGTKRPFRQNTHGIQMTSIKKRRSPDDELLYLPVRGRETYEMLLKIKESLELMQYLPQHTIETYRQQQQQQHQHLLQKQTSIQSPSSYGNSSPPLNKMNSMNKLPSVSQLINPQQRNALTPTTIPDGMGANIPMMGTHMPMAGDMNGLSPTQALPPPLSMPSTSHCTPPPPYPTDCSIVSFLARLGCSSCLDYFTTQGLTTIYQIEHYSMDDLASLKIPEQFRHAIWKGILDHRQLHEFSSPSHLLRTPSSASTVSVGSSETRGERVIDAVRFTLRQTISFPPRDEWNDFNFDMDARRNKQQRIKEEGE

[2] = target: T2, purified full-length TAp63α (human)
T2 chain: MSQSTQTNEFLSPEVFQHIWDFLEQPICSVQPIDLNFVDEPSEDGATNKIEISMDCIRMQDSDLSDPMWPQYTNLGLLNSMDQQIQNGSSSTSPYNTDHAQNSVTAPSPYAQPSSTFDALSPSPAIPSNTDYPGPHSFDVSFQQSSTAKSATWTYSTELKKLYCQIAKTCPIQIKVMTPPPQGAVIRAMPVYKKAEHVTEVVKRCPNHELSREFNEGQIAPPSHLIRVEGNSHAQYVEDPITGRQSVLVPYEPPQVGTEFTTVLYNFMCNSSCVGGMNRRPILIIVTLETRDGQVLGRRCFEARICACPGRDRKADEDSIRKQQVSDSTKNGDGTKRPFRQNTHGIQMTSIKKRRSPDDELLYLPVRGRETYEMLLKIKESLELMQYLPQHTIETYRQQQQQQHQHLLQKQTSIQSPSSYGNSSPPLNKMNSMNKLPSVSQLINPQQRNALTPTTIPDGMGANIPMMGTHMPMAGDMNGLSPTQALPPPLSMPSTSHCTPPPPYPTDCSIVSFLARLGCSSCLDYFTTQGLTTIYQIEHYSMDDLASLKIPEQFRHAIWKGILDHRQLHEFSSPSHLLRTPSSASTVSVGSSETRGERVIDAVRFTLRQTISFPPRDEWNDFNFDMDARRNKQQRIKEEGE

[3] = target: T1, purified full-length ΔNp63α
[4] = target: T2, purified full-length TAp63α
[5] = target: T1, purified full-length ΔNp63α
[6] = target: T2, purified full-length TAp63α

- Kd [1]: 202 nM
- Kd [2]: 734 nM
B1: DARPin C14, Alexa 488 labeled (designed binder)
chain: GSDLGKKLLEAAQIGQLDEVRILMANGADVNASDTDGLTPLHLAAASGHLEIVEVLLKTGADVNATDKWGDTPLHLAASQGHLEIVEVLLKAGADVNATDFTGNTPLHLAAYIGHLEIVEVLLKHGADVNAQDKFGKTPFDLAIDNGNEDIAEVLQKAAGGC
modifications: Alexa Fluor 488 C5 maleimide on the introduced C-terminal cysteine

- Kd [3]: 95.6 nM
- Kd [4]: 6.16 µM
B2: DARPin 8F1, Alexa 488 labeled (designed binder)
chain: GSDLGKKLLEAARAGQDDEVRILMANGADVNAADWLGYTPLHLAAWYGHLEIVEVLLKTGADVNARDAYGITPLHLAAYYGHLEIVEVLLKHGADVNAQDKFGKTPFDLAIDNGNEDIAEVLQKAAGGC
modifications: Alexa Fluor 488 C5 maleimide on the introduced C-terminal cysteine

- Kd [5]: 67.9 nM
- Kd [6]: 296 nM
B3: DARPin A5, Alexa 488 labeled (designed binder)
chain: GSDLGKKLLEAARAGQDDEVRILMANGADVNAQDQYGWTPLHLAAARGHLEIVEVLLKTGADVNAVDKHGNTPLPLAASVGHLEIVEVLLKAGADVNAQDQFGRTPLHLAAMWGHLEIVEVLLKHGADVNAQDKFGKTAFDISIDNGNEDIVEVLQKAAGGC
modifications: Alexa Fluor 488 C5 maleimide on the introduced C-terminal cysteine
